The target in this test is T1, human α-CGRP 1-36-COOH (human).
T1 construct: free C-terminal carboxyl, not amidated; also called 1-36 (not amidated at the C-terminus)
T1 peptide: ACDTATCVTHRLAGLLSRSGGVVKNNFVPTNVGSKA
Nature of the test: Biacore competition, 50 nM G1 Fab with 10 µM peptide, read on human α-CGRP chip. From the text:
Y axis represents percentage of binding blocked by the presence of the competing peptide compared with the binding in the absence of the competing peptide. […]
For orientation: In SPR one partner is held on a chip, and binding of the other changes the refractive index at the surface.

B1: antibody G1 Fab fragment (Fab, V domains shown)
VH: EVQLVESGGGLVQPGGSLRLSCAASGFTFSNYWISWVRQAPGKGLEWVAEIRSESDASATHYAEAVKGRFTISRDNAKNSLYLQMNSLRAEDTAVYYCLAYFDYGLAIQNYWGQGTLVTVSS
VL: EIVLTQSPATLSLSPGERATLSCKASKRVTTYVSWYQQKPGQAPRLLIYGASNRYLGIPARFSGSGSGTDFTLTISSLEPEDFAVYYCSQSYNYPYTFGQGTKLEIK
In the case of B1, the “percentage of binding blocked by competing peptide” value is roughly 40%.

For the origin of these results see patent US20200148761A1 (Teva, published 2020).
